Where “and” joins values, the source holds several entries; their conditions need not be identical. Equal entries are not always repeated.
T1: human CSPα L115R, purified from E. coli (human), Q9H3Z4
T1 chain: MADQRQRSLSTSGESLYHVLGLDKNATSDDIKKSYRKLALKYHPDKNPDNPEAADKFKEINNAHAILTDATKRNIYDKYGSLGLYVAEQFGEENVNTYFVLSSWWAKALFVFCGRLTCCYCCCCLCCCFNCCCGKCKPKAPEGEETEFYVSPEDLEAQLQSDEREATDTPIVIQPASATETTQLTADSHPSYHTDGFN

B1: human CSPα L116Δ, purified from E. coli (protein)
chain: MADQRQRSLSTSGESLYHVLGLDKNATSDDIKKSYRKLALKYHPDKNPDNPEAADKFKEINNAHAILTDATKRNIYDKYGSLGLYVAEQFGEENVNTYFVLSSWWAKALFVFCGLTCCYCCCCLCCCFNCCCGKCKPKAPEGEETEFYVSPEDLEAQLQSDEREATDTPIVIQPASATETTQLTADSHPSYHTDGFN
B2: human CSPα L115R, purified from E. coli, Q9H3Z4 1-198 (natural protein)
chain: T1 chain
B3: human CSPα L115R, purified from E. coli (protein)
chain: T1 chain

Legend:
[1] = biological target: Q9H3Z4; experiment: SDS-PAGE of SDS-resistant oligomers; details: other: SDS-PAGE of SDS-resistant oligomers
[2] = biological target: T1, human CSPα L115R, purified from E. coli …; experiment: SDS-PAGE of SDS-resistant oligomers; details: remark: other sources report otherwise

Binder | HMW oligomers, fold versus WT [1] | stoichiometry N [2]
B1 | 13.2 ± 3.9 fold versus WT | –
B2 | – | 2 and 4
B3 | 58.9 ± 5.9 fold versus WT | –

Reference: PMC4188699
